Columns and labels:
[1] = molecular target: LL-001 (…)/HLA-E 01:03 monomer complex (human); assay: ELISA; monomer complex on neutravidin plate
[2] = molecular target: LL-002 (…)/HLA-E 01:03 monomer complex (human); assay: ELISA; monomer complex on neutravidin plate
[3] = molecular target: V-0013 (…)/HLA-E 01:03 monomer complex (human); assay: ELISA; monomer complex on neutravidin plate
[4] = molecular target: V-0038 (…)/HLA-E 01:03 monomer complex (human); assay: ELISA; monomer complex on neutravidin plate
[5] = molecular target: P-0550 (…)/HLA-E monomer complex (human); assay: ELISA; monomer complex on neutravidin plate
[6] = molecular target: T1, V-0025 (…)/HLA-A2 02:01 monomer complex (human); assay: ELISA; monomer complex on neutravidin plate
T1 construct: also called V-0025 on HLA-A2*02:01

[7] = molecular target: 0002-A2 (…)/HLA-A2 02:01 monomer complex (human); assay: ELISA; monomer complex on neutravidin plate
[8] = molecular target: 0003-A2 (…)/HLA-A2 02:01 monomer complex (human); assay: ELISA; monomer complex on neutravidin plate
[9] = molecular target: T2, V-0018 (…)/HLA-A2 02:01 monomer complex (human); assay: ELISA; monomer complex on neutravidin plate
T2 construct: also called ABI-V-0018; negative control (V-0018)

[10] = molecular target: T3, HLA-G signal peptide/HLA-E*0103 complex (ABI-V-0025; …) (human); assay: label-free (ResoSens), against the Octet value of R4
T3 construct: also called 0025-E 01:03 monomer complex; V-0025 HLA-E 01:03 monomer complex
Experimental: (§1) The method for determining the affinity was as follows. Thermofisher Capture Select™ Biotin anti-IgG-Fc (Hu) (diluted PBS buffer) was immobilized on neutravidin coated Bionetic label-free microarray plate at 5 ug/ml until binding reached equilibrium. Plate subsequently was washed 3× with 0.1% BSA, 0.1% Tween20, PBS dilution/wash buffer. […] Plate was subsequently washed in dilution/wash buffer 3×. V-0025 HLA-E 01:03 monomer complex (serial dilutions starting at 5 ug/ml in dilution/wash buffer) was added to wells and allowed to incubate for 20 minutes to determine the binding association and then immediately followed by dissociation (dilution/wash buffer) for approximately 25 minutes. Binding affinity calculated using Tracedrawer kinetic analysis software.

[11] = molecular target: V-0021 (…)/HLA-E 01:03 monomer complex (human); assay: ELISA; monomer complex 0.25 µg/ml on neutravidin plate, antibody 1 µg/ml
[12] = molecular target: T3, HLA-G signal peptide/HLA-E*0103 complex …; assay: label-free (ResoSens, Resonant Sensors); ABX0020 captured by anti-IgG-Fc, V-0025 HLA-E 01:03 monomer in solution (monovalent)
Experimental: as §1

[13] = molecular target: T3, HLA-G signal peptide/HLA-E*0103 complex …; assay: label-free (ResoSens); V-0025 HLA-E 01:03 monomer on neutravidin plate, ABX0040 in solution

B1: ABX0020 (antibody, human IgG1, kappa)
heavy: not shown
light: DIQMTQSPSSLSASVGDRVTITCRASQSISSYLNWYQQKPGKAPKLLIYAASSLQSGVPSRFSGSGSGTDFTLTISSLQPEDFATYYCQQSATYWDMFGQGTKVEIKRTVAAPSVFIFPPSDEQLKSGTASVVCLLNNFYPREAKVQWKVDNALQSGNSQESVTEQDSKDSTYSLSSTLTLSKADYEKHKVYACEVTHQGLSSPVTKSFNRGEC
notes: also called R2-A12 hIgG1
- binding result [1]: no binding (tested: antibody 1 µg/ml, antigen 0.25 µg/ml)
- binding result [2]: no binding (tested: antibody 1 µg/ml, antigen 0.25 µg/ml)
- binding result [3]: no binding (tested: antibody 1 µg/ml, antigen 0.25 µg/ml)
- binding result [4]: no binding (tested: antibody 1 µg/ml, antigen 0.25 µg/ml)
- binding result [5]: no binding (tested: antibody 1 µg/ml, antigen 0.25 µg/ml)
- binding result [6]: no binding (tested: antibody 1 µg/ml, antigen 0.25 µg/ml)
- binding result [7]: no binding (tested: antibody 1 µg/ml, antigen 0.25 µg/ml)
- binding result [8]: no binding (tested: antibody 1 µg/ml, antigen 0.25 µg/ml)
- binding result [9]: no binding (tested: antibody 1 µg/ml, antigen 0.25 µg/ml)
- fold improvement of KD over the R4 clone [10]: > 200 fold
- binding result [11]: binds
- Kd [12]: 1.87 nM

B2: ABX0040 (bispecific antibody)
chain 1: not shown
chain 2: DIQMTQSPSSLSASVGDRVTITCRASQSISSYLNWYQQKPGKAPKLLIYAASSLQSGVPSRFSGSGSGTDFTLTISSLQPEDFATYYCQQSATYWDMFGQGTKVEIKRTVAAPSVFIFPPSDEQLKSGTASVVCLLNNFYPREAKVQWKVDNALQSGNSQESVTEQDSKDSTYSLSSTLTLSKADYEKHKVYACEVTHQGLSSPVTKSFNRGEC
chain 3: EVQLVESGGGLVQPKGSLKLSCAASGFTFNTYAMNWVRQAPGKGLEWVARIRSKYNNYATYYADSVKDRFTISRDDSQSILYLQMNNLKTEDTAMYYCVRHGNFGNSYVSWFAYWGQGTLVTVSS
chain 4: QAVVTQESALTTSPGETVTLTCRSSTGAVTTSNYANWVQEKPDHLFTGLIGGTNKRAPGVPARFSGSLIGDKAALTITGAQTEDEAIYFCALWYSNLWVFGGGTKLTVL
- Kd [13]: 1.57 nM

— patent US20240026007A1 (Boehringer Ingelheim, published 2024)
